In patent US20170015742A1 (published 2017):

How the values were obtained:
VEGF-A [1] = biological target: T1, VEGF-A (human, UniProt P15692 207-395); assay: Biacore SPR; DVD-Ig captured on anti-human Fc, antigen injected
T1 construct: also called hVEGF165
Procedure, shortened: (§1)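 Antibodies or DVD-Ig molecules (1 μg/ml) were captured on an anti-human Fc CM5 surface, with antigen injected in solution and responses referenced to the capture-only surface. Rate constants came from a global 1:1 Langmuir fit, and KD = koff/kon.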

PDGF-BB [2] = biological target: T2, PDGF-BB (human, UniProt P01127 82-190, limits assumed); assay: as above
T2 construct: also called human PDGF-BB; hPDGF-BB
T2 sequence (P01127 82-190 limits assumed): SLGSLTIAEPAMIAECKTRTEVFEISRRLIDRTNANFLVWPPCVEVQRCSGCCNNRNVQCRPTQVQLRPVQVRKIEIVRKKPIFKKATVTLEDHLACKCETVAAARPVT
Procedure, shortened: as §1

VEGF-A [3] = biological target: VEGF-A (UniProt P15692-4 27-191, limits assumed); assay: SPR (Biacore), DVD-Ig captured by anti-human Fc, antigen in flow
VEGF-A (UniProt P15692-4 27-191, limits assumed), sequence (P15692 other isoform, or with tags, fused parts or gaps limits assumed): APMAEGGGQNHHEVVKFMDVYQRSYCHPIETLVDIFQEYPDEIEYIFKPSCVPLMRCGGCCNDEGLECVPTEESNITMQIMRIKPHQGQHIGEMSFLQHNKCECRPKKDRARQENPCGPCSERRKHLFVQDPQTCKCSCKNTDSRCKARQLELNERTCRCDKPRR
Procedure: (§2) For example, approximately 9000 RU of goat anti-human Fc specific polyclonal antibody (Thermo Fisher Scientific Inc., Rockford, Ill.) diluted in 10 mM sodium acetate (pH 4.5) is directly immobilized across a CM5 research grade biosensor chip using a standard amine coupling kit according to manufacturer's instructions and procedures at 25 μg/ml. Unreacted moieties on the biosensor surface were blocked with ethanolamine. For kinetic analysis, rate equations derived from the 1:1 Langmuir binding model were fitted simultaneously to multiple antigen injections (using global fit analysis) with the use of Scrubber 2 (BioLogic Software), Biacore Biaevaluation 4.0.1 software or Biacore T100 Evaluation software. Purified antibodies or DVD-Ig molecules were diluted in running buffer for capture across goat anti-human Fc reaction surfaces. Antibodies or DVD-Ig molecules to be captured as a ligand (1 μg/ml) were injected over reaction matrices at a flow rate of 10 μl/minute. During the assay, all measurements were referenced against the capture surface alone (i.e., with no captured antibody or DVD-Ig molecule). […] The equilibrium dissociation constant KD (M) of the reaction between antibodies and the target antigen was then calculated from the kinetic rate constants by the following formula: KD=Koff/Kₒₙ. Binding was recorded as a function of time and kinetic rate constants were calculated.

PDGF-BB [4] = biological target: PDGF-BB (UniProt P01127 82-190); assay: as above
PDGF-BB (UniProt P01127 82-190), sequence (P01127 82-190): as the sequence (P01127 82-190 limits assumed) above
Procedure: as §2

T1 sequence (P15692 other isoform, or with tags, fused parts or gaps limits assumed): as the sequence (P15692 other isoform, or with tags, fused parts or gaps limits assumed) above

Kd (VEGF-A [1])	kon (VEGF-A [1])	Kd (PDGF-BB [2])	kon (PDGF-BB [2])	Kd (VEGF-A [3])	kon (VEGF-A [3])	Kd (PDGF-BB [4])	kon (PDGF-BB [4])	Binder
0.0066 nM	4.7e+06 M⁻¹ s⁻¹	0.00074 nM	1.6e+07 M⁻¹ s⁻¹	–	–	–	–	4G8.5_GS_CL-33675 (PR-1611291) (bispecific antibody, human IgG1, kappa, L234A L235A, DVD-Ig: outer hBDB-4G8.5 (VEGF), inner CL-33675 (PDGF), linkers GS-H10/GS-L10(dR); Human IgG1 L234A, L235A, H435A with kappa) heavy: EIQLVQSGSELKKPGASVKVSCKASGYTFTNYGMYWVRQAPGQGLEYMGWINTETGKPTYADDFKGRFVFSLDTSVSTAYLQISSLKAEDTAVYFCARTNYYYRSYIFYFDYWGQGTMVTVSSGGGGSGGGGSEVTLRESGPALVKPTQTLTLTCTFSGFSLSTYGMGVGWIRQPPGKALEWLANIWWDDDKYYNPSLKNRLTISKDTSKNQVVLTMTNMDPVDTATYYCARIESSGPKYSFDYWGQGTMVTVSSASTKGPSVFPLAPSSKSTSGGTAALGCLVKDYFPEPVTVSWNSGALTSGVHTFPAVLQSSGLYSLSSVVTVPSSSLGTQTYICNVNHKPSNTKVDKKVEPKSCDKTHTCPPCPAPEAAGGPSVFLFPPKPKDTLMISRTPEVTCVVVDVSHEDPEVKFNWYVDGVEVHNAKTKPREEQYNSTYRVVSVLTVLHQDWLNGKEYKCKVSNKALPAPIEKTISKAKGQPREPQVYTLPPSREEMTKNQVSLTCLVKGFYPSDIAVEWESNGQPENNYKTTPPVLDSDGSFFLYSKLTVDKSRWQQGNVFSCSVMHEALHNAYTQKSLSLSPGK light: ATQLTQSPSLSASVGDRVTITCRASESVSTHMHWYQQKPGKQPKLLIYGASNLESGVPSRFSGSGSGTDFTLTISSLQPEDFATYFCQQSWNDPFTFGQGTKLEIKGGSGGGGSGGEIVLTQSPGTLSLSPGERATLSCRASSGSIWYSFVSWYQQKPGQAPRLLIYADDQRASGIPDRFSGSGSGTDFTLTISRLEPEDFAVYYCQSYGINIDVVFGGGTKVEIKRTVAAPSVFIFPPSDEQLKSGTASVVCLLNNFYPREAKVQWKVDNALQSGNSQESVTEQDSKDSTYSLSSTLTLSKADYEKHKVYACEVTHQGLSSPVTKSFNRGEC
0.0085 nM	5.4e+06 M⁻¹ s⁻¹	0.028 nM	5.8e+06 M⁻¹ s⁻¹	–	–	–	–	4G8.5_GS_9E8.4 (PR-1612489) (bispecific antibody, human IgG1, kappa, L234A L235A, DVD-Ig: outer hBDB-4G8.5 (VEGF), inner hBDI-9E8.4 (PDGF), linkers GS-H10/GS-L10(dR); Human IgG1 L234A, L235A, H435A with kappa) heavy: EIQLVQSGSELKKPGASVKVSCKASGYTFTNYGMYWVRQAPGQGLEYMGWINTETGKPTYADDFKGRFVFSLDTSVSTAYLQISSLKAEDTAVYFCARTNYYYRSYIFYFDYWGQGTMVTVSSGGGGSGGGGSEVTLRESGPALVKPTQTLTLTCTFSGFSLSTYGMGVGWIRQPPGKALEWLANIWWDDDKYYNPSLKNRLTISKDTSKNQVVLTMTNMDPVDTATYYCARIESIGTTYSFDYWGQGTMVTVSSASTKGPSVFPLAPSSKSTSGGTAALGCLVKDYFPEPVTVSWNSGALTSGVHTFPAVLQSSGLYSLSSVVTVPSSSLGTQTYICNVNHKPSNTKVDKKVEPKSCDKTHTCPPCPAPEAAGGPSVFLFPPKPKDTLMISRTPEVTCVVVDVSHEDPEVKFNWYVDGVEVHNAKTKPREEQYNSTYRVVSVLTVLHQDWLNGKEYKCKVSNKALPAPIEKTISKAKGQPREPQVYTLPPSREEMTKNQVSLTCLVKGFYPSDIAVEWESNGQPENNYKTTPPVLDSDGSFFLYSKLTVDKSRWQQGNVFSCSVMHEALHNAYTQKSLSLSPGK light: ATQLTQSPSLSASVGDRVTITCRASESVSTHMHWYQQKPGKQPKLLIYGASNLESGVPSRFSGSGSGTDFTLTISSLQPEDFATYFCQQSWNDPFTFGQGTKLEIKGGSGGGGSGGEFVLTQSPGTLSLSPGERATLSCERSSGDIGDSYVSWYQQKPGQAPRLVIYADDQRPSGIPDRFSGSGSGTDFTLTISRLEPEDFAVYYCQSYDINIDIVFGGGTKVEIKRTVAAPSVFIFPPSDEQLKSGTASVVCLLNNFYPREAKVQWKVDNALQSGNSQESVTEQDSKDSTYSLSSTLTLSKADYEKHKVYACEVTHQGLSSPVTKSFNRGEC
–	–	–	–	0.78 nM	160000 M⁻¹ s⁻¹	0.02 nM	1e+07 M⁻¹ s⁻¹	9E8.4-SS-4G8.3 (PR-1563990) (bispecific antibody, human IgG1, kappa, L234A L235A, DVD-Ig; outer hBDI-9E8.4 (PDGF), linkers HG-short/LK-short, inner hBDB-4G8.3 (VEGF); human IgG1 L234A, L235A / kappa) heavy: not shown light: EFVLTQSPGTLSLSPGERATLSCERSSGDIGDSYVSWYQQKPGQAPRLVIYADDQRPSGIPDRFSGSGSGTDFTLTISRLEPEDFAVYYCQSYDINIDIVFGGGTKVEIKGTVAAPDTVLTQSPATLSLSPGERATLSCRASESVSTHMHWYQQKPGQAPRLLIYGASNLESGVPARFSGSGSGTDFTLTISSLEPEDFAVYFCQQSWNDPFTFGQGTKLEIKRTVAAPSVFIFPPSDEQLKSGTASVVCLLNNFYPREAKVQWKVDNALQSGNSQESVTEQDSKDSTYSLSSTLTLSKADYEKHKVYACEVTHQGLSSPVTKSFNRGEC
